According to the nanobody polyreactivity screen of Harvey et al. (2022):

Assay: yeast display, Sf9 membrane polyspecificity reagent, FACS + sequencing; frameworks hold sequencing errors
How it was run: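 A synthetic nanobody library was expressed on Saccharomyces cerevisiae BJ5465 by galactose induction for 36–48 hours. The library was stained for 1 hour at 4 °C with 10% biotinylated, detergent-solubilized Sf9 membrane reagent and enriched with streptavidin microbeads before FACS. Low and high (top ~1%) gates were set on anti-HA fluorescence for expression and streptavidin fluorescence for reagent binding, and each polyreactivity label reflects the gate of origin.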

Q: With “QVQLVESGGGLVQAGGSLRLSCAASGSTFGYNDMGWYRQAPGKERELVAAIDTGVSTNYADSVKGRFTISRDNAKNTVYLQMNSLKPEDTAVYYCAKSGSAYWHSGWSVGFDYWGQGTQVTVSS” as the sequence, how does the “polyreactivity (PSR sort gate)” value read?
A: low polyreactivity

Q: For “QVQLVESGGGLVQAGGSLRLSCAASGSTFGYYAMGCYRQAPGKERELVAAITSGGSTKYADSVKGRFTISRDNAKNTVYLQMNSLKPEDTAVYYCATSRYFGYGFWGQGTQVTVSS”, which “polyreactivity (PSR sort gate)” value is on record?
A: low polyreactivity

Q: For “QVQLVESGGGLVQAGGSLRLSCAASGSTFGYYAMGWSRQAPGKERELVAVITYSGGSTYYADSVKGRFTISRDNAKNTVYLQMNSLKPEDTAVYYCAAVIGVWYYYTYDYWGQGTQVTVSS”, which “polyreactivity (PSR sort gate)” value is on record?
A: low polyreactivity

Q: For “QVQLVESGGGLVQAGGSLRLSCAASGSTFGYYAMGWYRQAPGKERELVAAISYSGGSTYYADSVKGRFTISRDNAKNTVYLQMNSLKPAVTAVYYCAARFTRQMYYWGQGTQVTVSS”, which “polyreactivity (PSR sort gate)” value is on record?
A: high polyreactivity

Q: Which “polyreactivity (PSR sort gate)” value does the source give for “QVQLVESGGGLVQAGGSLRLSCAASGSTFGYYAMGWYRQAPGKERELVAAITDSGGITHYADSVKGRFTISRDNAKNTVYLQMNSLKPEDTAVYYCYARYLGYGWFDYWGQGTQVTVSS” here?
A: low polyreactivity

Q: With “QVQLVESGGGLVQAGGSLRLSCAASGSTFGYYAMGWYRQAPGKERELVAAITIRGDGTYYADSVKGRFTISRDNAKNTVYLQMNSLIPEDTAVYYCAAEDWLWFDYWGQGTQVTVSS” as the sequence, how does the “polyreactivity (PSR sort gate)” value read?
A: high polyreactivity

Q: With “QVQLVESGGGLVQAGGSLRLSCAASGSTFGYYARLWYRQAPGKERDLVAAISYSGGSTYYADSVKGRFTISRDNAKNTVYLQMNSLKPEDTAVYYCAARFTRQMYYWGQGTQVTVSS” as the sequence, how does the “polyreactivity (PSR sort gate)” value read?
A: high polyreactivity

Q: For “QVQLVESGGGLVQAGGSLRLSCAASGSTFGYYGMGWYRQAPGKERELLAAISTGGRTNYADSVKGRFTISRDNAKNTVYLQMNSLKPEDTAVYYCAADFLSPAYRPSWYRFDYWGQGTQVTVSS”, which “polyreactivity (PSR sort gate)” value is on record?
A: low polyreactivity

Q: Which “polyreactivity (PSR sort gate)” value does the source give for “QVQLVESGGGLVQAGGSLRLSCAASGSTFGYYTMGRYRQAPGKERELVAAITWSGGTTYYAESVKGRFTISRDNAKNPVYLQMNSLKPEDTAVYYCATRPWYYASPRTRFGSWGQGTQVTVSS” here?
A: high polyreactivity

Q: Which “polyreactivity (PSR sort gate)” value does the source give for “QVQLVESGGGLVQAGGSLRLSCAASGSTFGYYTMGWYRQAPGKERELVAAISWGGGSTYYADSVKGRFTISRDNAKNTVYFQMNSLIPEDTAVYYCARTPVTSYKDDFYYWGQGTQVTVSS” here?
A: low polyreactivity

Q: Which “polyreactivity (PSR sort gate)” value does the source give for “QVQLVESGGGLVQAGGSLRLSCAASGSTFGYYTMGWYRQAPGKERELVAAITWSGGSTYYADSVKGRFTISRDNAKNSVYLQINSLKPEDSSVYYCAADDYWTPFGYWGQGTQVTVSS” here?
A: low polyreactivity

Q: With “QVQLVESGGGLVQAGGSLRLSCAASGSTFHDYAMGLYRQAPGKERELVAAISNSGGSTYYADSVKGRFTISRDNAKNTVYLQMNSLKPEDTAVYYCAARKYVAGHKYIMNYWGQGTQVTVSS” as the sequence, how does the “polyreactivity (PSR sort gate)” value read?
A: low polyreactivity

Q: With “QVQLVESGGGLVQAGGSLRLSCAASGSTFHGNAMGWYRQAPGKERELVAAISRSGGSTYYADSVKGRFTISRDNAKNTVYLQMNSLKPEDTAVYYCAADRPYYPLKYDYWGQGTQVTVSS” as the sequence, how does the “polyreactivity (PSR sort gate)” value read?
A: high polyreactivity

Q: With “QVQLVESGGGLVQAGGSLRLSCAASGSTFHKYVMGWYRQAPGKEREFVAAISRRGTRTYYADSVKGRFTISRDNAKNTVYLQMNSLKPEDTAVYYCNVYYYRTYTHFLPGYEYWGQGTQVTVSS” as the sequence, how does the “polyreactivity (PSR sort gate)” value read?
A: high polyreactivity

Q: Which “polyreactivity (PSR sort gate)” value does the source give for “QVQLVESGGGLVQAGGSLRLSCAASGSTFHLYAMGWYRKAPGKEREFVAAIRGRGGNTYADSVKGRFTISRDNAKNTVYLQMNSLKPEDTAVYYCAAPLLRDLRSPYSYNYWGQGTQVTVSS” here?
A: low polyreactivity

Q: Which “polyreactivity (PSR sort gate)” value does the source give for “QVQLVESGGGLVQAGGSLRLSCAASGSTFHLYAMGWYRQAPGKETEFVPAIRGRGGNTYADSVKGRFTISRDNAKNTVYLQMNSLKPEDTAVYYCAAPLLRDLRSPYSYNYWGQGTQVTVSS” here?
A: low polyreactivity

Q: For “QVQLVESGGGLVQAGGSLRLSCAASGSTFHLYAMGWYRQAPGKETEIVAAIRGRGGNTYADSVKGRFTISRDNAKHTVYFQMNSLKPEDTAVSYCATSISEYQDFTRYDYWGQGTQVTVSS”, which “polyreactivity (PSR sort gate)” value is on record?
A: low polyreactivity

Q: For “QVQLVESGGGLVQAGGSLRLSCAASGSTFHNYAMGWYRQAPGKERELVAGISVRGGGTYYADSVKGRFTISRDNAKNTVYLQMNSLKPEDTAVYYCAPDFYWFWTYGTLWYGYEYWGQGTQVTVSS”, which “polyreactivity (PSR sort gate)” value is on record?
A: high polyreactivity

Q: Which “polyreactivity (PSR sort gate)” value does the source give for “QVQLVESGGGLVQAGGSLRLSCAASGSTFHPNAMGWCRQAPRKQRELFAAITWSTSVTYYADSVKGRFTISRDNAKNTVFLQMISLKPEDSAVYYCNAGYMLDSFRYDHWGQCTQVTVSS” here?
A: low polyreactivity

Q: With “QVQLVESGGGLVQAGGSLRLSCAASGSTFHPYAMGWYRQPPGKASELVAAINWRVGSTYYADSVKGRFTISRDNAKNTVYLQMTSQIPEDTAVYYCAVSYMATLGRSRYDYWGQGTQVTVSS” as the sequence, how does the “polyreactivity (PSR sort gate)” value read?
A: low polyreactivity

Q: For “QVQLVESGGGLVQAGGSLRLSCAASGSTFHRNAMGWYRQAPGKERELVAAITSGGSTNYADSVKGRFKISRDNAKNTVYLQMNSLKPEDTAVYYCAADEVWGRDLGEYWGQGTQVTVSS”, which “polyreactivity (PSR sort gate)” value is on record?
A: low polyreactivity

Q: Which “polyreactivity (PSR sort gate)” value does the source give for “QVQLVESGGGLVQAGGSLRLSCAASGSTFHRYAMGWYRQAPGKERELVAAITSSGDITYYADSVKGRFTISRDNAKNTVYLQMNSLKPEDTAVYYCNADGFYSWLYDYWGQGTQVTVSS” here?
A: low polyreactivity

Q: Which “polyreactivity (PSR sort gate)” value does the source give for “QVQLVESGGGLVQAGGSLRLSCAASGSTFHRYTMGWYRQAPGKERELLAAISWSGGSTYYADSVKGRFTISRDNAKNTVYLQMNSLKPEDTAVYYSNKVTVYRFRGDSWGQGTQVTVSS” here?
A: high polyreactivity

Q: Which “polyreactivity (PSR sort gate)” value does the source give for “QVQLVESGGGLVQAGGSLRLSCAASGSTFHRYTMGWYRQAPGKERELVAAISSGGRTYYADSVKGRFTISRDNAKNTVYLQMNSLKPEDTAVYYCNSRYPRQYWGGYDYWGQGTQVTVSS” here?
A: high polyreactivity

Q: Which “polyreactivity (PSR sort gate)” value does the source give for “QVQLVESGGGLVQAGGSLRLSCAASGSTFHWYAMGWYRQAPGKERELVAAITSGGSTYYADSVKGRFTISRDNAKNTVYLQMNSLKPEDTAVYYCNADRVDSFFDGPSRGYDYWGQGTQVTVSS” here?
A: low polyreactivity

Q: Which “polyreactivity (PSR sort gate)” value does the source give for “QVQLVESGGGLVQAGGSLRLSCAASGSTFHYAMGWYRPAPGKERELVAAITYGGGRTFYADSVKGRFTISRDNAKNTVYLQMNSLKPEDTAVYYCAKVVYYYGRGWTDYRSTMDSWGQGTQVTVSS” here?
A: low polyreactivity

Q: With “QVQLVESGGGLVQAGGSLRLSCAASGSTFHYYAMGWYRQAPGKERELVAAISKRGGSTYYADSVKGRFTISRDNAKNNVYLQMNSLKPEDTSVYYCAKTWVSYSRYHYEYWGQGTQVTVSS” as the sequence, how does the “polyreactivity (PSR sort gate)” value read?
A: high polyreactivity

Q: For “QVQLVESGGGLVQAGGSLRLSCAASGSTFHYYAMGWYRQAPGKERELVAAISKSGGITYYADSVKGRFTISRDNAKNTVSLQMNSLKPEDTAVYYCNAYSASGYDYWGQGTQVTVSS”, which “polyreactivity (PSR sort gate)” value is on record?
A: high polyreactivity

Q: Which “polyreactivity (PSR sort gate)” value does the source give for “QVQLVESGGGLVQAGGSLRLSCAASGSTFIAYALGWYRQAPGKERELDAAITTGDSTNYADSVKGRFTISRDNAKNTVYLQMNSLKPEDTAVYYCNADGTDFHFLSEIGSSQEGDYWGQGTQVTVSS” here?
A: low polyreactivity

Q: With “QVQLVESGGGLVQAGGSLRLSCAASGSTFIDNTMGWYRQAPGKERELVASIRRSGGSTYYADSVKGRFTISRDNAKNTVYLQMNSLKPEDTAVYYCDVATRYHTTFWYYYWGQGTQVTVSS” as the sequence, how does the “polyreactivity (PSR sort gate)” value read?
A: high polyreactivity

Q: For “QVQLVESGGGLVQAGGSLRLSCAASGSTFIEYAMGWYRQAPGTERELVAGITTSSGRTSYADSVKGRFSISRDNAKNTVYLQMNSLKPEDTAVYYCAADIYYYSPYDSFWYSEVDYWGQGTQVTVSS”, which “polyreactivity (PSR sort gate)” value is on record?
A: low polyreactivity

Q: Which “polyreactivity (PSR sort gate)” value does the source give for “QVQLVESGGGLVQAGGSLRLSCAASGSTFIFNTMGWYRQAPGKEREVVASITGDGRTNYADSVKGRFTISRDNAKNTVYLQMNSLKPEDTAVYYCAADGYDQYPLWAPPGDYWGQGTQVTVSS” here?
A: low polyreactivity

Q: For “QVQLVESGGGLVQAGGSLRLSCAASGSTFIFYAMGWYRQAPGKERELVASITSRAASTYYADSVKGRFTFSRDNAKNTVYFQMNSLKPEVTAVYYCAANFSYTLFWWSSFLLYVYWGQGTQVTVSS”, which “polyreactivity (PSR sort gate)” value is on record?
A: low polyreactivity

Q: Which “polyreactivity (PSR sort gate)” value does the source give for “QVQLVESGGGLVQAGGSLRLSCAASGSTFIFYTMGWYRQAPGKERELVAAITSNGGSTYYADSVKGRFTISRDNAKNTVYLQMNSLKPEDTAVYYCARVDRWRRYRYIFSGYDYWGQGTQVTVSS” here?
A: high polyreactivity

Q: Which “polyreactivity (PSR sort gate)” value does the source give for “QVQLVESGGGLVQAGGSLRLSCAASGSTFIGYAMGWYRQAPGKERELVAGIRWSGGRTYYADSVKGRFTISRDNAKNTVYLHMNSLKPEDTAVYYCNARFYASAKGYDYWGQGTQVTVSS” here?
A: low polyreactivity

Q: For “QVQLVESGGGLVQAGGSLRLSCAASGSTFIGYAMGWYRQAPGKERELVASISWGGGSTYYADSVKGRFTISRDNAKNTVYLQQNSLIPEDTAVYYCNTYYWFSGCPYDYWGQGTQVTVSS”, which “polyreactivity (PSR sort gate)” value is on record?
A: low polyreactivity

Q: With “QVQLVESGGGLVQAGGSLRLSCAASGSTFIGYTMGWYRQAPGKERELVAAISTSGARTYYADSVKGRFTISRDNAKNTVYLQMNSLKPEDTAVYYCAARAIYKSKYDYWGQGTQVTVSS” as the sequence, how does the “polyreactivity (PSR sort gate)” value read?
A: high polyreactivity

Q: With “QVQLVESGGGLVQAGGSLRLSCAASGSTFILYAMGWYRQAPGKERELVAAITSRGGSTYYADSVKGRFTISRDNAKNTVYLQMNSLKPEDTAVYYCAADNGYIGPKPYFLAYPVGYDSWGQGTQVTVSS” as the sequence, how does the “polyreactivity (PSR sort gate)” value read?
A: low polyreactivity

Q: Which “polyreactivity (PSR sort gate)” value does the source give for “QVQLVESGGGLVQAGGSLRLSCAASGSTFINYAMGWYRQAPGKERELVAVITSDDGSTYYADSVKGRFTISRDNAKNTVYLQMNSLKPEDTAVYYCAADYYDQRYRPGPWYDYWGQGTQVTVSS” here?
A: low polyreactivity

Q: Which “polyreactivity (PSR sort gate)” value does the source give for “QVQLVESGGGLVQAGGSLRLSCAASGSTFIPNAMGWYSQAPGKERELVAAISTGGSTNYADSVKGRFTISRDNAKNTVYLQMNSLKPEDTAVYYCNARRGYYNPGRRFYYWGQGTQVTVSS” here?
A: low polyreactivity

Q: With “QVQLVESGGGLVQAGGSLRLSCAASGSTFIRNAMGWYRQAPGKERELVAAITTDGSTDYADSVKGRFTISRDNAKNTVYLQMNSLKPEDTAVDYCNAEYRLDALSYDYLGQGTQVTVSS” as the sequence, how does the “polyreactivity (PSR sort gate)” value read?
A: low polyreactivity

Q: For “QVQLVESGGGLVQAGGSLRLSCAASGSTFIRNTMGWYRQAPGKERELLAAISRSGVRTYYADSVKGRFTISRDNAKNTVYLQINSLKPEDTAVSYCAAVSSLSYSFPYDYWGQGTQVTVST”, which “polyreactivity (PSR sort gate)” value is on record?
A: high polyreactivity

Q: For “QVQLVESGGGLVQAGGSLRLSCAASGSTFIRYAMGWYRQAPGKERELVAAIRRTGASTYYADSVKGRFTISRDNAKNTVYLQMNSLKPEDTAVYYCAARYSIWSWNGLDYWGQGTQVTVSS”, which “polyreactivity (PSR sort gate)” value is on record?
A: high polyreactivity
